The record followed here is the nanobody polyreactivity screen of Harvey et al. (2022).

This data set is described as follows: yeast display, Sf9 membrane polyspecificity reagent, FACS + sequencing; frameworks hold sequencing errors. The procedure, abridged:
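A synthetic nanobody library was expressed on Saccharomyces cerevisiae BJ5465 by galactose induction for 36–48 hours. The library was stained for 1 hour at 4 °C with 10% biotinylated, detergent-solubilized Sf9 membrane reagent and enriched with streptavidin microbeads before FACS. Low and high (top ~1%) gates were set on anti-HA fluorescence for expression and streptavidin fluorescence for reagent binding, and each polyreactivity label reflects the gate of origin.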
Regarding “QVQLVESGGGLVQAGGSLRLSCAASGFTFHYYAMGWYRQAPGKERELVAAISSSGGNTYYADSVKGRFTISRDNAKNTVYLQMNSLKPEDTEVYYCNAYSFFLGGYDYWGQGTQVTVSS”, the “polyreactivity (PSR sort gate)” value is reported as “high polyreactivity”.
The entry for “QVQLVESGGGLVQAGGSLRLSCAASGFTFINYAMGWYRQAPGKERELVAAISRRGGSTYYADSVKGRFTISRDNAKNTVYLQMNSLKPEDTAVYYCAARGYSYNYDYWGQGTQVTVSS” is “high polyreactivity”.
In the case of “QVQLVESGGGLVQAGGSLRLSCAASGFTFIPYAMGWYRQAPGKERELVAAISRKGGRTYYADSVKGRFTISRDNAKNTVYLQMNSLKPEDTAVYYCAVSQYRGIYRKYDYWGQGTQVTVSS” it was “high polyreactivity”; in that of “QVQLVESGGGLVQAGGSLRLSCAASGFTFIQYAMGWYRQAPGKERELVAAISVSGGSTYYADSVKGRFTISRDNAKNTVYLQMNSLKPEDTAVYYCNTVTSGFLSYDYWGQGTQVTVSS”, “high polyreactivity”; in that of “QVQLVESGGGLVQAGGSLRLSCAASGFTFIQYAMGWYRQAPGKERELVAAITRSGGRTYYADSVKGRFTISRDNAKNTVFLQMNSLKPEDTAVYYCNADRTRGYQRYDYWGQGTQETVSS”, “high polyreactivity”.
On to “QVQLVESGGGLVQAGGSLRLSCAASGFTFISNAMGWYRQAPGKERELVAAISSSGGRTFYADSVKGRFTISRDNAKNTDDLQMNSLKPEDTAVYYCNADRSLLYSRKIEYDYWGQGTQVTVSS”, for which the “polyreactivity (PSR sort gate)” value is recorded as “low polyreactivity”.
Consider “QVQLVESGGGLVQAGGSLRLSCAASGFTFITNAMGWYRQAPGKERELVASISIGGSTNYADSVKGRFTISRDNAKNTVYLQMNSLKPEDTAVYYCAARVYRRLFLPGRYGRPLGYWGQGTQVTVTS”, for which the “polyreactivity (PSR sort gate)” value is “high polyreactivity”.
On to “QVQLVESGGGLVQAGGSLRLSCAASGFTFIYYAMGWYRQAPGKERELVAAINRGGNTYYADSVKGRFTISRDNAKNTVYLQMNSLKPEDTAVYYCNARSYRRGHYYWGQGTQVTVSS”, for which the “polyreactivity (PSR sort gate)” value is on record as “high polyreactivity”.
Regarding “QVQLVESGGGLVQAGGSLRLSCAASGFTFKGYTMGWYRQAPGKERELVAGISRRGGSTYYADSVKGRFTISRDNAKNTVYLQMNSLKPEDTAVYYCAADSQLTKFYYWGQGTQVTVSS”, the “polyreactivity (PSR sort gate)” value is “high polyreactivity”.
For “QVQLVESGGGLVQAGGSLRLSCAASGFTFKKNAMGWYRQAPGTERELVAAISRSGGITYYADSVKGRFTISRDNAKNTVYLQMNSLKPEDTAVYYCATQTYRTPGYYYWGEGTQVTVSS”, the “polyreactivity (PSR sort gate)” value was “high polyreactivity”.
Take “QVQLVESGGGLVQAGGSLRLSCAASGFTFKRYAMGWYRQAPGKERELVAVISSGGSTYYADSVKGRFTISRDNAKNCVYLQMNRLKPEDTAVYYCNAYIGGSSWHTALDYWGQGTQVTVSS”: the “polyreactivity (PSR sort gate)” value is “high polyreactivity”.
With “QVQLVESGGGLVQAGGSLRLSCAASGFTFKRYAMGWYRQAPGKESELVAVISSGGSTYYADSVKGRFTISRDNAKNTVYLQMNSLKPEDTAVYYCNAYIGGSSWHTALDYWGQGTQVTVSS”, the “polyreactivity (PSR sort gate)” value was “high polyreactivity”.
For the sequence “QVQLVESGGGLVQAGGSLRLSCAASGFTFKSYAMGWYRQAPGKERELVASISRRGGSTYYADSVKGRFTISRDNAKNTVYLQMNSLKPEDTAVYYCAADKRPPYILDYWGLGTQVTVSS”, the “polyreactivity (PSR sort gate)” value is “high polyreactivity”.
Turning to “QVQLVESGGGLVQAGGSLRLSCAASGFTFKSYTMAWYRHAPGKERELVANISRRGGSTYYADSVKGRFTLSRDNAKNTVYLQMNSLKPEDTAVYYCAADAYGFLDTTYRYFYWGQGSQVTVSS”, the “polyreactivity (PSR sort gate)” value was “high polyreactivity”.
The entry for “QVQLVESGGGLVQAGGSLRLSCAASGFTFKVYNAMGWYRQAPGKERELVAAITSSVGGTYYADSVKGRFTISRDNAKNTFYLQMNSLKPEDTAVYYFATDGPISPYWEWPWLLYDYWGQGTQVTVSS” is “low polyreactivity”; for “QVQLVESGGGLVQAGGSLRLSCAASGFTFKWYAMGWYRQAPGKERELVATITIGGRTNYADSVKGRFTISRDNAKNTVYLQMNSLKPEDTAVYCCATFFVGFRLSDYDYWGQGTQVTVSS” it is “low polyreactivity”; for “QVQLVESGGGLVQAGGSLRLSCAASGFTFKWYAMGWYRQAPGKERELVATITIGGRTNYADSVKGRFTISRDNAKNTVYLQMNSLKPEDTAVYYCAAESGKIVDFVWVLAYPRLDYWGQGTQVTVSS” it is “low polyreactivity”.
The entry for “QVQLVESGGGLVQAGGSLRLSCAASGFTFKYNAMGWYRHAPGKERELVAAISSSDGTNYADSVKGRFTISRDNAKNTVYLQMNSLKQEDTAVYYCAADYFYLEDYYYWGQGSQVTVSS” is “low polyreactivity”; for “QVQLVESGGGLVQAGGSLRLSCAASGFTFKYYAMGWYRPAPRKERELVADITRSGGSTYYADSVKGRFTISRDNAKNTVYLQMNSLKPEDTAGYYCAVDPVRYPYSYDYWGQGTQVTGSS” it is “high polyreactivity”.
In the case of “QVQLVESGGGLVQAGGSLRLSCAASGFTFKYYAMGWYRQAPGKERELVARISWSGGSTYYADSVKGRFTISRDNAKNTFYLQMNSLKPEDTAVYYCNTDVGYGFDYWGQGTQVTVSS” it was “high polyreactivity”; in that of “QVQLVESGGGLVQAGGSLRLSCAASGFTFKYYAMGWYRQAPGKERELVARISWSGGSTYYADSVKGRFTISRDNAKNTVYLQMNSLKPEDTAVYYCAAKLYSKRTGARMNYWGQGTQVTVSS”, “high polyreactivity”.
For “QVQLVESGGGLVQAGGSLRLSCAASGFTFLANGMGWYRQAPGKERELVAGITKDGGSTYADSVKGRFTISRDNAKNTVYLQMNSLKPEDTAVYYCAASIFSFSGGLNNGGTRGYWGQGTQVTVSS”, the “polyreactivity (PSR sort gate)” value was “low polyreactivity”.
The entry for “QVQLVESGGGLVQAGGSLRLSCAASGFTFLDYAMGWYRQAPGKERELVAAIDDSGGSTYYADSVKGRFTISRDNAKNTVYLQMNSLKPEDTAVYYCAADWYFFSQLYDYWGQGTQVTVSS” is “low polyreactivity”.
The entry for “QVQLVESGGGLVQAGGSLRLSCAASGFTFLKNAMGWYRQAPGKERELVAAITSSGGRTYYADSVKGRFTISRDNAKNTVYLQMNSLKPEDTAVYYCAADHTHGYVLYYNDNYWGQGTQVTVSS” is “high polyreactivity”; for “QVQLVESGGGLVQAGGSLRLSCAASGFTFLKNAMGWYRQAPGKERELVAAITSSGGRTYYADSVKGRFTISRDNAKYTVYLQMNSLKPEDTAVYYCNKGPLPGYDYWGQGNQVTVSS” it is “high polyreactivity”.
As for “QVQLVESGGGLVQAGGSLRLSCAASGFTFLKYAMGWYRQAPGKERELVAAISWSGDSTYYADSVKGRFTISRDNAKNTVYLQMNSLKPEDTAVYYCAATYSFYGYYYWGQGTQVTVSS”, the “polyreactivity (PSR sort gate)” value is recorded as “high polyreactivity”.
With “QVQLVESGGGLVQAGGSLRLSCAASGFTFLPYVMGWYRQAPGKERELVAAMSSSGGSTYYADSVKGRFTISRDNAKNTVYLQMNSLKPEDTAVYYCAKDIGVRRRDFEDYEYWGQGTQVTVSS”, the “polyreactivity (PSR sort gate)” value is recorded as “low polyreactivity”.
In the case of “QVQLVESGGGLVQAGGSLRLSCAASGFTFLRYAMGWYRQAPGKERELVAAITGGGNTNYADSVKGRFTISRDNAKNTVYLQMNSLKPEDTAVYYCNARRRYWPYREDYWGQGTQVTVSS” it was “high polyreactivity”; in that of “QVQLVESGGGLVQAGGSLRLSCAASGFTFLRYAMGWYRQAPGKERELVAAITRGGTTYYADSVKGRFTISRDNAKNTVYLQMNSLKPEDTAVYYCNTLTSYTRYNYWGQGTQVTVSS”, “high polyreactivity”; in that of “QVQLVESGGGLVQAGGSLRLSCAASGFTFNGKSMGLYRQAPGKERELVAAISYSGGSTYYADSVKGRFTISRDYAKNTVYLQMNSLKPEDTSVYYCAADRTAYSVRGYTKVHSGHDYWGQGTQVSVSS”, “low polyreactivity”.
